{
  "source": "paper PMC8604303",
  "about": "“Polymerization of C9 enhances bacterial cell envelope damage and killing by membrane attack complex pores” (PLoS Pathogens, 2021)",
  "proteins": {"B1": {"name": "wildtype C9 (C9wt) (natural protein)", "chain": "not shown", "modifications": "Cy5 at the C-terminus in the binding assays (GGGK-azide sortagged onto LPETGG, then DBCO-Cy5 by copper-free click chemistry)"}},
  "target": "the molecule itself",
  "experiment": "cell-based or functional assay",
  "data": [
    {"protein": "B1", "values": [
      {"measurement": "bacterial viability (CFU) of C5b-8 labelled E. coli MG1655 with 100 nM C9, decrease", "result": "≥ 1000", "unit": "fold"}
    ]}
  ]
}
